Test results reported in publication PMC4674680 (2015).

B1: iBox-C24 (peptide)
chain: VSRFAALMSCRSRQPIICNDVSYL
modifications: synthetic peptide; exact limits are only in Fig. 1d; taken as the last 24 residues because the text gives a 24mer of iBox-C (C-terminal 22 aa of Inka1)
B2: GST-iBox (Inka1 166–203) (domain or fragment)
chain: EAEDWTAALLNRGRSRQPLVLGDNCFADLVHNWMELPE
modifications: GST carrier left out. Limits 166-203 are the paper's, taken from the 4XBR fusion: Flag/SGS 1-12, iBox 13-50, EF linker 51-52, PAK4 278-591 from 53 (12+38+2+314=366). Entity position = paper number - 153 (F191=F38, L194=L41, V195=V42, P(0)=P30). The paper's Inka1 numbering may differ from UniProt Q96EL1 (paper's C-terminus is 285, entry is 287 aa).
B3: iBox 23mer synthetic peptide (peptide)
peptide: AEDWTAALLNRGRSRQPLVLGDW
B4: iBox24C (peptide)
chain: SRQPLVLGDNCFADLVHNWMELPE
modifications: synthetic peptide; taken as the C-terminal 24 residues (paper numbering 180-203) of the 38-aa iBox; 4XBR position = Inka1 paper number minus 153; exact limits are only in Fig. 1d

molecular target: 6His–PAK4cat (PAK4 286–591) (human, UniProt O96013 286-591); test: kinase activity inhibition (GST-Raf13 phosphorylation)
Sequence (O96013 286-591): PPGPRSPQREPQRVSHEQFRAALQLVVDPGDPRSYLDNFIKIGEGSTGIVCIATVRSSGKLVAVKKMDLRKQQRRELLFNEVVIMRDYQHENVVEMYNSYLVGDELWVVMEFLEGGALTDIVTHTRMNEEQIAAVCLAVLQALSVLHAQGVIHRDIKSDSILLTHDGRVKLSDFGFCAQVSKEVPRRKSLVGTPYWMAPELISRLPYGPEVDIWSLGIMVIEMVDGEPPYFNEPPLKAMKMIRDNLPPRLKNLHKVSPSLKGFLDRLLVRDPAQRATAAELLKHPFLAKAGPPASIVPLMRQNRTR

Row | Binder | IC50 [nM]
1 | B1 | 300
2 | B2 | 36
3 | B3 | 229
4 | B4 | 382
